# According to US20200369754A1 (Janssen / Centocor, published 2020):
# T1: Tau peptide A6940 (human, biotin (bound via biotin to a streptavidin biosensor in the Octet assay; position of the biotin not stated))
# T1 construct: Biotinylated in the Octet assay; also called cognate Tau peptide A6940
# T1 peptide: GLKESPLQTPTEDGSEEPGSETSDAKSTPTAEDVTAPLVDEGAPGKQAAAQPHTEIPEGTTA
# Key:
# Tau peptide A6940 = target: T1, Tau peptide A6940; assay: ITC, tau peptide 20 uM titrated with IgG 200 uM, PBS pH 7.4, one set of sites model
# Description: Affinities of the novel antibodies were determined using a Microcal Auto-iTC200 isothermal titration calorimeter (Malvern). […] Data was fitted according to a one set of sites model using Microcal PEAQ-ITC Analysis Software (Malvern).
# The continuous lines represent the fit of the data to a “one set of binding sites” model.
# [1] = target: T2, Aggregated recombinant 2N4R tau (rTau) (human, UniProt P10636 2-758, covalently labelled with pHrodo Green STP Ester); assay: uptake of pHrodo-labelled rTau immunocomplexes by BV2 cells, flow cytometry
# T2 construct: Full-length huTau441 expressed in E. coli, in aggregated form; also called rTau aggregates; tau aggregates
# T2 sequence (P10636 other isoform, or with tags, fused parts or gaps limits assumed): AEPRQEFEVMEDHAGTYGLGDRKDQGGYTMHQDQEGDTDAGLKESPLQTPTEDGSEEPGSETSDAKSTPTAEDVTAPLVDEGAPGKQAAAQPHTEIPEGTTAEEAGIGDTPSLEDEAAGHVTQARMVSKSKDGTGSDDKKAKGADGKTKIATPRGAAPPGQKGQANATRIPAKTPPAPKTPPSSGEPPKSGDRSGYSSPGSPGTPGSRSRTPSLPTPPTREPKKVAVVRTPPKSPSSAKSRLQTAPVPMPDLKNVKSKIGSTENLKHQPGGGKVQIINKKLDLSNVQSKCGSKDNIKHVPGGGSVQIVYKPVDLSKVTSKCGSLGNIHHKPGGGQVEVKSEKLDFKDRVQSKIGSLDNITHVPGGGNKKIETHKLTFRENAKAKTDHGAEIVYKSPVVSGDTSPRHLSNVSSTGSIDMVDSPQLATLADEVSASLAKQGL
# Description: In each experiment a mouse IgG1 isotype control was included together with cells incubate with only aggregated rTau.
# Immunocomplexes were incubated over night at 4° C. and the day after applied to BV2 cells for 2 hours at 37° C. with 5% CO2. After incubation cells were harvested with 0.25% trypsin-EDTA for 20 min thus simultaneously removing Tau bound to the extracellular membrane, centrifuged at 400 rcf to remove medium removed, washed twice with PBS and resuspended in flow cytometry buffer (PBS 1× plus 0.5% BSA and 2 mM EDTA). Cells were analyzed with a Canto II flow cytometer (BD) gating for live single cell population, as identified by forward and side scatter profiles. Each experiment was conducted in duplicate.
Binder,Kd (Tau peptide A6940),binding result [1]
"CBTAU-28.1 (I50M[VH];Y52W[VH];S103W[VH];S32R[VL];E35K[VL]) (antibody, V domains shown) VH: QVQLQQSGAEVKKPGESLKISCEASGYSFTNYWIGWVRQMPGKGLEWMGMIWPGDSDTRYSPPFQGQVTITADRSITTAYLEWSSLKASDTAMYYCARVGRPWKGGWFDPWGQGTLVTVSS VL: DIQMTQSPDSLAVSLGERATINCESSQTLLYRSNKKNYLAWYQQKPGQPPKLLISWASTPESGVPDRFSGSGSGTSFTLTISSLQAEDVAVYYCQQYYNSPYTFGQGTRLEIK",67 nM,binds
"CBTAU-28.1 (I50M[VH];Y52W[VH];S103F[VH];S32R[VL];E35K[VL]) (antibody, V domains shown) VH: QVQLQQSGAEVKKPGESLKISCEASGYSFTNYWIGWVRQMPGKGLEWMGMIWPGDSDTRYSPPFQGQVTITADRSITTAYLEWSSLKASDTAMYYCARVGRPFKGGWFDPWGQGTLVTVSS VL: DIQMTQSPDSLAVSLGERATINCESSQTLLYRSNKKNYLAWYQQKPGQPPKLLISWASTPESGVPDRFSGSGSGTSFTLTISSLQAEDVAVYYCQQYYNSPYTFGQGTRLEIK",63 nM,binds
"CBTAU-28.1 (I50M[VH];Y52W[VH];S103F[VH];Y31W[VL];N99H[VL]) (antibody, V domains shown) VH: QVQLQQSGAEVKKPGESLKISCEASGYSFTNYWIGWVRQMPGKGLEWMGMIWPGDSDTRYSPPFQGQVTITADRSITTAYLEWSSLKASDTAMYYCARVGRPFKGGWFDPWGQGTLVTVSS VL: DIQMTQSPDSLAVSLGERATINCESSQTLLWSSNEKNYLAWYQQKPGQPPKLLISWASTPESGVPDRFSGSGSGTSFTLTISSLQAEDVAVYYCQQYYHSPYTFGQGTRLEIK",45 nM,binds
"CBTAU-28.1 (I50M[VH];Y52W[VH];S103W[VH];Y31W[VL];N99H[VL]) (antibody, V domains shown) VH: QVQLQQSGAEVKKPGESLKISCEASGYSFTNYWIGWVRQMPGKGLEWMGMIWPGDSDTRYSPPFQGQVTITADRSITTAYLEWSSLKASDTAMYYCARVGRPWKGGWFDPWGQGTLVTVSS VL: DIQMTQSPDSLAVSLGERATINCESSQTLLWSSNEKNYLAWYQQKPGQPPKLLISWASTPESGVPDRFSGSGSGTSFTLTISSLQAEDVAVYYCQQYYHSPYTFGQGTRLEIK",57 nM,binds
"CBTAU-28.1 (S32R[VL];E35K[VL]) (antibody, V domains shown) VH: QVQLQQSGAEVKKPGESLKISCEASGYSFTNYWIGWVRQMPGKGLEWMGIIYPGDSDTRYSPPFQGQVTITADRSITTAYLEWSSLKASDTAMYYCARVGRPSKGGWFDPWGQGTLVTVSS VL: DIQMTQSPDSLAVSLGERATINCESSQTLLYRSNKKNYLAWYQQKPGQPPKLLISWASTPESGVPDRFSGSGSGTSFTLTISSLQAEDVAVYYCQQYYNSPYTFGQGTRLEIK",,binds
